Data on seven molecules can be found in patent US20150274802A1.

Square brackets hold non-standard residues; d marks the D form. Primed or numbered codes have the meaning given here. Ends that are not written are not given here. PEG4″ = 4-unit polyethylene glycol spacer; PEG8″ = 8-unit polyethylene glycol spacer

Assay [1] has as its target type A insulin receptor (UniProt P06213). As to the kind of experiment: competitive binding SPA, subtype A insulin receptor (FIG. 17D).
Assay [2] concerns the target type B insulin receptor, P06213. As to the kind of experiment: cell-based or functional assay.
For assay [3], the target named is type A insulin receptor, P06213. As to the kind of experiment: cell-based or functional assay.
The target of assay [4] is type A insulin receptor (UniProt P06213). As to the kind of experiment: cell-based or functional assay.

B1: #53: Lys^C8-Lys^C8 #3 dimer, B^1[H5Y16L17]25-PEG8KPEG4-A^1[N18,21] (ligand)
chain: Ac-GPEHLCGAELVDALYLVCGDRGFY[PEG8″]K(mercaptopropionyl)[PEG4″]GIVDECCFRSCDLRRLENYCN
modifications: ends and bridges not checked; also: dimer: linker Lys side chains joined by disulfide to second chain
Molecule B1 gave a binding affinity, fold against native insulin in the assay with type A insulin receptor [1] of 1.5 fold.

B2: #57: Gly^B2-PEG20K-Gly^B2 #11 dimer (ligand)
chain: GPEHLCGAHLVDALYLVCGDRGFYGYGSSSRRAPQTGIVDECCHRSCDLRRLENYCN
modifications: not fully specified (N-terminus); ends and bridges not checked; also: dimer: N-terminal amines of two chains joined by bifunctional 20K PEG linker
In assay [2], B2 yielded a % Insulin Activity (in vitro, assay not named) of 5.8%; a Phosphorylation (EC50), % IR-B of 5.8%; a potency against the 20K PEGylated monomer (#39) of 4 fold. In assay [3], the % Insulin Activity (in vitro, assay not named) is 19.7%; the Phosphorylation (EC50), % IR-A stood at 19.7%; the potency against the 20K PEGylated monomer (#39) was found to be 4 fold.

B3: #56: Gly^B2-PEG10K-Gly^B2 #11 dimer (ligand)
chain: GPEHLCGAHLVDALYLVCGDRGFYGYGSSSRRAPQTGIVDECCHRSCDLRRLENYCN
modifications: not fully specified (N-terminus); ends and bridges not checked; also: dimer: N-terminal amines of two chains joined by bifunctional 10K PEG linker
B3 returned a Phosphorylation (EC50), % IR-B in assay [2] of 9.7%. In addition, the Phosphorylation (EC50), % IR-A in assay [3] turned out to be 38.2%.

B4: #55: Lys^B1-PEG9-Lys^B1 #20* dimer, GE5K-B^1(H5,10Y16L17)25-C^1-A^1(H8N18,21) (ligand)
chain: GEEEEEKGPEHLCGAHLVDALYLVCGDRGFYGYGSSSRRAPQTGIVDECCHRSCDLRRLENYCN
For the molecule B4, the Phosphorylation (EC50), % IR-A with type A insulin receptor [4] was determined as 44%.

B5: #59: Cys^B1-Lys^C8 #2(sc)-#3 dimer (ligand)
chain 1: CGPEHLCGAELVDALYLVCGDRGFYFNKKGIVDECCFRSCDLRRLENYCN
chain 2: GPEHLCGAELVDALYLVCGDRGFYKGIVDECCFRSCDLRRLENYCN
modifications: here or on the partner: N-terminus acetylated; linker Lys epsilon-amine mercaptopropionylated; Cys B1 side chain disulfide-linked to the mercaptopropionyl group on the linker Lys of the second chain
As for B5, the maximal response in assay [2] turned out to be 10%. Further, the IC50, antagonism test in assay [3] is 2.08 nM.

B6: #60: Cys^B1-Lys^C8 #2(tc)-#3 dimer (ligand)
chain 1: CGPEHLCGAELVDALYLVCGDRGFYFNKK
chain 2: GIVDECCFRSCDLRRLENYCN
chain 3: GPEHLCGAELVDALYLVCGDRGFYKGIVDECCFRSCDLRRLENYCN
modifications: here or on the partner: N-terminus acetylated; linker Lys epsilon-amine mercaptopropionylated; Cys B1 side chain disulfide-linked to the mercaptopropionyl group on the linker Lys of the single-chain unit
Molecule B6 showed a maximal response in assay [2] of 50%. In assay [3], this molecule came in with an IC50, antagonism test of 1.89 nM and a maximal receptor response of 50%.

B7: #58: Lys^C8-PEG20K-Lys^C8 #3 dimer (ligand)
chain: Ac-GPEHLCGAELVDALYLVCGDRGFY[PEG8″]KGIVDECCFRSCDLRRLENYCN
modifications: not fully specified (some residues); numbers in words are those of the source; ends and bridges not checked; also: dimer: linker Lys epsilon-amines of two chains joined by bifunctional 20K PEG linker
In assay [3], B7 returned a Phosphorylation (EC50), % IR-A of 18.6%.
